Laboratory results: US20240382610A1 (TALLAC THERAPEUTICS, published 2024)

T1: Human nectin-4 ECD-6His (TNT-175) (human, UniProt Q96NY8 32-349)
T1 construct: the entry holds the extracellular domain with the C-terminal 6His tag
T1 sequence: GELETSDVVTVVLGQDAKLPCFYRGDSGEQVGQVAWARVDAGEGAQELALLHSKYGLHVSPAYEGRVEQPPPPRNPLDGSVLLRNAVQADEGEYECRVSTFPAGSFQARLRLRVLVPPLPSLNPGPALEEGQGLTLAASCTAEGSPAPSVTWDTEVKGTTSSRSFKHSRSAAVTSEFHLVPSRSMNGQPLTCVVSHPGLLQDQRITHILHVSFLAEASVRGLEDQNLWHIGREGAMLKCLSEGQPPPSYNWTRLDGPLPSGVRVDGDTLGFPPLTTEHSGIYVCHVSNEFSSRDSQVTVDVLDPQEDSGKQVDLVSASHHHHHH

T2: human nectin-4 on cells (human, UniProt Q96NY8 32-510)
T2 construct: whole, on cells; also called PVRL4
T2 sequence (looked up): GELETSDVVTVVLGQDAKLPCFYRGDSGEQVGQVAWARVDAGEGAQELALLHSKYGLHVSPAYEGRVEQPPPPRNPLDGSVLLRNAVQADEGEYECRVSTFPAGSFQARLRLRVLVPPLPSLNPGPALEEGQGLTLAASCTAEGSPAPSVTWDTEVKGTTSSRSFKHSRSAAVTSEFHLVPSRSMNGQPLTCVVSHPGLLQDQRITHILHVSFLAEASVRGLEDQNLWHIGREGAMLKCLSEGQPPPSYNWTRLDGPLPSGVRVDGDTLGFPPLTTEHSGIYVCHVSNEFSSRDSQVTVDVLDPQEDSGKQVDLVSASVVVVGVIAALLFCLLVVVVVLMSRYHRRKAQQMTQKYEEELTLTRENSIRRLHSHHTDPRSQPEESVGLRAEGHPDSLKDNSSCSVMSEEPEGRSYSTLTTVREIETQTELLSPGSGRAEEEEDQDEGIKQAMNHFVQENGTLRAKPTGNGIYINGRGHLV


Assays:
[1] = target: T1, Human nectin-4 ECD-6His (TNT-175); experiment: SPR ProteOn, mAb on protein A
Description: Initial testing of binding of nectin-4 antibodies to nectin-4. […] Biotinylated protein A (15 μg/mL) was immobilized to the surface of an NLC chip. 30 nM of purified mAb supernatant was diluted in PBS-T and captured over the protein A surface. Serial dilutions of human nectin-4 were injected over the mAb-coated chips, and binding kinetics were determined. Chips were regenerated using 4:1 v/v of IgG elution butter/4M NaCl.

human nectin-4 on cells = target: T2, human nectin-4 on cells; experiment: flow cytometry MFI, MNK74 (nectin-4 positive) over AGS (negative)
Description: Cell binding of nectin-4 antibodies. Cell binding of the nectin-4 antibodies was also assessed. MNK74 (nectin-4 positive) and AGS (nectin-4 negative) cells were obtained from ATCC and cultured according to their protocols. Cells were detached with TrypLE (Gibco) and washed by centrifugation for five minutes at 400×g with FACS buffer (PBS+2% FBS). Cells were resuspended in FACS buffer, plated in 96-well format (0.25 e6/well) then pelleted by centrifugation for five minutes at 400×g. Cells were stained at 4° C. in Fixable Viability Dye eFluor 506 (eBioscience) diluted 1:4,000 in PBS. […] Cells were centrifuged, washed once in FACS buffer and stained at 4° C. with Goat F(ab′)₂ anti-Mouse IgG APC (Southern Biotech) diluted 1:400 in FACS buffer for 30 minutes or appropriate anti-human IgG. Cells were centrifuged, washed twice and fixed in 0.5% paraformaldehyde. Cells were analyzed on Attune NxT Flow Cytometer (Thermo Fisher), with subsequent data analysis by Flowjo 10.7 (BD). Dead cells were excluded by gating on the eFluor 506-negative population. […] Binding was assessed by median fluorescent intensity.

[2] = target: T1, Human nectin-4 ECD-6His (TNT-175); experiment: competition ELISA; nectin-4 ECD premixed with TNT201, captured by the coat antibody; % of signal without premix antibody
Description: (§1) Competition experiments of nectin-4 antibodies. ELISA plates were coated overnight at 4° C. with goat anti-mouse IgG at […] in PBS. […] As positive control, nectin-4 was diluted at same concentrations without a premix antibody. Two wells per plate were allocated for diluent only as negative/background control. Plates were washed as previously, 50 μL/well of premix was added to each plate and incubated for one hour. Plates were washed then incubated at room temperature for one hour with Rabbit anti 6× HIS HRP diluted 1:4,000 in diluent. Plates were washed once more and incubated at room temperature for 20 minutes with 50 μL/well of ABTS substrate. […] Binding was measured as an Optical Density (O.D.) value normalized to background and calculated as a percentage of positive control at the lowest nectin-4 dilution for greatest resolution.

[3] = target: T1, Human nectin-4 ECD-6His (TNT-175); experiment: competition ELISA; nectin-4 ECD premixed with TNT202, captured by the coat antibody; % of signal without premix antibody
Description: as §1

[4] = target: T1, Human nectin-4 ECD-6His (TNT-175); experiment: competition ELISA; nectin-4 ECD premixed with TNT203, captured by the coat antibody; % of signal without premix antibody
Description: as §1

[5] = target: T1, Human nectin-4 ECD-6His (TNT-175); experiment: competition ELISA; nectin-4 ECD premixed with TNT204, captured by the coat antibody; % of signal without premix antibody
Description: as §1

[6] = target: T1, Human nectin-4 ECD-6His (TNT-175); experiment: competition ELISA; nectin-4 ECD premixed with TNT205, captured by the coat antibody; % of signal without premix antibody
Description: as §1

[7] = target: T1, Human nectin-4 ECD-6His (TNT-175); experiment: competition ELISA; nectin-4 ECD premixed with TNT206, captured by the coat antibody; % of signal without premix antibody
Description: as §1

[8] = target: T1, Human nectin-4 ECD-6His (TNT-175); experiment: competition ELISA; nectin-4 ECD premixed with TNT207, captured by the coat antibody; % of signal without premix antibody
Description: as §1

[9] = target: T1, Human nectin-4 ECD-6His (TNT-175); experiment: competition ELISA; nectin-4 ECD premixed with TNT208, captured by the coat antibody; % of signal without premix antibody
Description: as §1

[10] = target: T1, Human nectin-4 ECD-6His (TNT-175); experiment: competition ELISA; nectin-4 ECD premixed with TNT209, captured by the coat antibody; % of signal without premix antibody
Description: as §1

[11] = target: T1, Human nectin-4 ECD-6His (TNT-175); experiment: competition ELISA; nectin-4 ECD premixed with TNT210, captured by the coat antibody; % of signal without premix antibody
Description: as §1

[12] = target: T1, Human nectin-4 ECD-6His (TNT-175); experiment: competition ELISA; nectin-4 ECD premixed with TNT211, captured by the coat antibody; % of signal without premix antibody
Description: as §1

[13] = target: T1, Human nectin-4 ECD-6His (TNT-175); experiment: competition ELISA; nectin-4 ECD premixed with TNT212, captured by the coat antibody; % of signal without premix antibody
Description: as §1

| Kd [1] | koff [1] | kon [1] | Fold-change of binding to MNK74 compared to control AGS (human nectin-4 on cells) | % of Positive [2] | % of Positive [3] | % of Positive [4] | % of Positive [5] | % of Positive [6] | % of Positive [7] | % of Positive [8] | % of Positive [9] | % of Positive [10] | % of Positive [11] | % of Positive [12] | % of Positive [13] | Binder |
| --- | --- | --- | --- | --- | --- | --- | --- | --- | --- | --- | --- | --- | --- | --- | --- | --- |
| 4.28 nM | 0.00334 s⁻¹ | 780000 M⁻¹ s⁻¹ | 4.8 fold | 1.7% | 7.8% | 39.7% | 6.7% | 57.1% | 14.3% | 3.4% | 5.8% | 37.2% | 2.6% | 32.4% | 2.7% | TNT-197 (antibody, mouse IgG2a, kappa) heavy: EVQLVQSGGGVVQPGRSLRLSCAASGFTFSSYAMHWVRQAPGKGLEWVAVISYDGSNKYYADSVKGRFTISRDNSKNTLYLQMNSLRAEDTAVYYCARATLQLWLPLFDYWGQGTLVTVSSAKTTAPSVYPLAPVCGDTTGSSVTLGCLVKGYFPEPVTLTWNSGSLSSGVHTFPAVLQSDLYTLSSSVTVTSSTWPSQSITCNVAHPASSTKVDKKIEPRGPTIKPCPPCKCPAPNLLGGPSVFIFPPKIKDVLMISLSPIVTCVVVDVSEDDPDVQISWFVNNVEVHTAQTQTHREDYNSTLRVVSALPIQHQDWMSGKEFKCKVNNKDLPAPIERTISKPKGSVRAPQVYVLPPPEEEMTKKQVTLTCMVTDFMPEDIYVEWTNNGKTELNYKNTEPVLDSDGSYFMYSKLRVEKKNWVERNSYSCSVVHEGLHNHHTTKSFSRTPGRPQGFGPP light: not shown |
| 0.585 nM | 0.0023 s⁻¹ | 3.92e+06 M⁻¹ s⁻¹ | 7 fold | 6.7% | 27.9% | 65.2% | 18.7% | 75.3% | 43.1% | 18.4% | 26.4% | 66.5% | 11% | 46.1% | 21.2% | TNT-194 (antibody, mouse IgG2a, kappa) heavy: EVQLVQSGAEVKKPGASVKVSCKASGYTFTSYDINWVRQAPGQGLEWMGGIIPIFGTANYAQKFQGRVTITADESTSTAYMELRSLRSEDTAVYYCASTAVAGFGIDYWGQGTLVTVSSAKTTAPSVYPLAPVCGDTTGSSVTLGCLVKGYFPEPVTLTWNSGSLSSGVHTFPAVLQSDLYTLSSSVTVTSSTWPSQSITCNVAHPASSTKVDKKIEPRGPTIKPCPPCKCPAPNLLGGPSVFIFPPKIKDVLMISLSPIVTCVVVDVSEDDPDVQISWFVNNVEVHTAQTQTHREDYNSTLRVVSALPIQHQDWMSGKEFKCKVNNKDLPAPIERTISKPKGSVRAPQVYVLPPPEEEMTKKQVTLTCMVTDFMPEDIYVEWTNNGKTELNYKNTEPVLDSDGSYFMYSKLRVEKKNWVERNSYSCSVVHEGLHNHHTTKSFSRTPGRPQGFGPP light: DIQMTQSPSSLSASVGDRVTITCRASQGISNYLAWFQQKPGKAPKSLISAASSLQSGVPSRFSGSGSGTDFTLTISSLQPEDFATYYCLQHDSFPITFGGGTKLEIKRADAAPTVSIFPPSSEQLTSGGASVVCFLNNFYPKDINVKWKIDGSERQNGVLNSWTDQDSKDSTYSMSSTLTLTKDEYERHNSYTCEATHKTSTSPIVKSFNRNEC |
| 1.34 nM | 0.00125 s⁻¹ | 930000 M⁻¹ s⁻¹ | 6.4 fold | 6.6% | 24.7% | 51.5% | 15.2% | 63.2% | 35.8% | 18.3% | 23.1% | 56.2% | 16.3% | 46.9% | 20.7% | TNT-195 (antibody, mouse IgG2a, kappa) heavy: EVQLVQSGAEVKKPGSSVKVSCKASGGTFSSYAISWVRQAPGQGLEWMGGIIPIFGTANYAQKFQGRVTITADKSTSTAYMELSSLRSEDTAVYYCAAGYYYDSSGYYHQPYYFDYWGQGTLVTVSSAKTTAPSVYPLAPVCGDTTGSSVTLGCLVKGYFPEPVTLTWNSGSLSSGVHTFPAVLQSDLYTLSSSVTVTSSTWPSQSITCNVAHPASSTKVDKKIEPRGPTIKPCPPCKCPAPNLLGGPSVFIFPPKIKDVLMISLSPIVTCVVVDVSEDDPDVQISWFVNNVEVHTAQTQTHREDYNSTLRVVSALPIQHQDWMSGKEFKCKVNNKDLPAPIERTISKPKGSVRAPQVYVLPPPEEEMTKKQVTLTCMVTDFMPEDIYVEWTNNGKTELNYKNTEPVLDSDGSYFMYSKLRVEKKNWVERNSYSCSVVHEGLHNHHTTKSFSRTPGRPQGFGPP light: DIQMTQSPSTLSASVGDRVTITCRASQGISNYLAWYQQKPGKAPKLLIYAASSLQSGVPSRFSGSGSGTDFTLTISSLQPEDFATYYCQQSYSTPLTFGGGTKVEIKRADAAPTVSIFPPSSEQLTSGGASVVCFLNNFYPKDINVKWKIDGSERQNGVLNSWTDQDSKDSTYSMSSTLTLTKDEYERHNSYTCEATHKTSTSPIVKSFNRNEC |
